Experimental data reported in patent US9175053B2, “Chemical preparation of ubiquitin thioesters and modifications thereof” (BEN-GURION UNIVERSITY OF THE NEGEV RESEARCH AND DEVELOPMENT …, priority 2010, dated 2015).
“Also recorded” adds a separate entry of the source.

Target: T1, recombinant human ubiquitin C-terminal hydrolase L3 (UCH-L3) (Homo sapiens, UniProt P15374)
T1 construct: purchased Aldrich
T1 sequence (P15374 1-230): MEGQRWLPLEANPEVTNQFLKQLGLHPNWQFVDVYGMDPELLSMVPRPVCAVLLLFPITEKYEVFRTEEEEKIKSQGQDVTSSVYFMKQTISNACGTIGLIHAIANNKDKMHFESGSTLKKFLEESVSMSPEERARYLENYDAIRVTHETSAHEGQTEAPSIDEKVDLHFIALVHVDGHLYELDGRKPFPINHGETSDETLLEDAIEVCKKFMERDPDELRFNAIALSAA
Assay: Enzymatic cleavage of isopeptide by ubiquitin C-terminal hydrolase UCH-L3
Type: biochemical
Conditions: ~100 μM peptide, 12 hours at 37° C., Tris/NaCl/DTT buffer
Experimental: Purified peptide 8 was dissolved in 482 μL of assay buffer (50 mM Tris, 150 mM NaCl, 1 mM DTT, pH 7.5) to a final concentration of ˜100 μM and reacted with recombinant human ubiquitin C-terminal hydrolase L3 (UCH-L3, Aldrich). 10 μg of UCH-L3 in 15.5 μL of assay buffer containing 50 mM Tris, 150 mM NaCl, 12 mM DTT, pH 8.0 was incubated for 20 minutes at 25° C. To the reduced UCH-L3 was then added 8 in 187 μL. […] The reaction was analyzed using C-4 analytical RP-HPLC employing a gradient of 10-60% B for 30 minutes, in order to identify the hydrolysis.

8: α-synuclein(1-17) model peptide ubiquitylated with synthetic Ub-SR via mercaptolysine, then desulfurized (Scheme 6) [Peptide 8]
hydrolysis of the ubiquitylated peptide by UCH-L3 (RP-HPLC): UCH-L3 substrate; also recorded: complete hydrolysis
